Source: the nanobody polyreactivity screen of Harvey et al. (2022)

Experiment: yeast display, Sf9 membrane polyspecificity reagent, FACS + sequencing; frameworks hold sequencing errors
Summary of the method: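 Using colony PCR, genes from sorted yeast display clones were amplified, then sequenced on MiSeq at 2 × 250 and filtered by CDR length. The clones had been stained with 10% biotinylated, detergent-solubilized Sf9 membrane reagent for 1 hour at 4 °C and sorted by FACS into low and high (top ~1%) gates on anti-HA and streptavidin fluorescence. Polyreactivity labels come from the gate of origin.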

Sequence | polyreactivity (PSR sort gate)
QVQLVESGGGLVQAGGSLRLSCAASGSTFTINVMGWYRQSPGKERELVAAINGGGRTNYADSVKGRFTISRDNAKNTVYLQMNSLKPEDTAVYYCAADGLSNVRQMDYWGQGTQVTVSS | low polyreactivity
QVQLVESGGGLVQAGGSLRLSCAASGSTFTINVMGWYSQAPGKEREVVAAINGGGRTNYADSVKGRFTISRDHAKNTVNLQMNSLKPEDTAVYYCAADGLSNVRQMDYWGQGTQVTVSS | low polyreactivity
QVQLVESGGGLVQAGGSLRLSCAASGSTFTIYAMGWYRPAPGKERELVAAIDWSGGGTDYADSVKGRFTISRDNAKNTVYLQMNSLKPEDTAVYYCAAETFYDYGGYDYWGQGTQVTVSS | low polyreactivity
QVQLVESGGGLVQAGGSLRLSCAASGSTFTKNVMGWYRQAPGKERELVAAISSGGRTNYADSVKGRFTISRDNAKNTVYLQMNSLKPEDTAVYYCAADVGYFKSDYWGQGTQVTVSS | low polyreactivity
QVQLVESGGGLVQAGGSLRLSCAASGSTFTKYAMGWYRKAPGKERELVAAITYSGGRTYYADSVKGRFTISRDNAKNTVYLQMNSLKPEDTAVYYCAAATYAGKPMEYWGQGTQVTVSS | high polyreactivity
QVQLVESGGGLVQAGGSLRLSCAASGSTFTLYAMGWYRQAPGQERELVAAIRRGGSTNYADSVKGRFTISRDNAKNPVYLQMNSLKPEDTAVYYSAADTYTSRSRYSGSGGYDYWGQGTQVTVSS | low polyreactivity
QVQLVESGGGLVQAGGSLRLSCAASGSTFTPNDMGWYRQAPGKERELVAAINSGGGRTYYADSVKGRFTISRDNAKNTVYLQMNSLKPEDTAVYYCAKRLYISGYGYGYWGQGTQVTVSS | high polyreactivity
QVQLVESGGGLVQAGGSLRLSCAASGSTFTPYAMGWHRQAPGKERELVAAITIRGGSTYYADSVKGRFTISRDNAKNTVYLQMYSLKPEDTAVYYCAREYIFSVYDYSTSYYYWGQGTQVTVSS | low polyreactivity
QVQLVESGGGLVQAGGSLRLSCAASGSTFTQYAMGWYRQAPGKERELVAAINSRGDSTYYADSVKGRFTISRDNAKNTVYLQMNSLKPEDTAVYYCAATGYLSYYQQDLWLEYYYWGQGTQVTVSS | low polyreactivity
QVQLVESGGGLVQAGGSLRLSCAASGSTFTQYAMGWYRQAPGKERELVATISRRGTRTYYADSVKGRFTISRDNAKNTVYLQMNSLKPEDTAVYYCAADNGPYRTIGYDSWGQGTQVTVSS | high polyreactivity
QVQLVESGGGLVQAGGSLRLSCAASGSTFTQYVMGWYRQAPGKERELVAAISDSGSTYYADSVKGRFTISRDNAKNTVYLQMNSLKPEDTAVYYCNADDVEFYYGYGYLDYDYWGQGTQVTVSS | low polyreactivity
QVQLVESGGGLVQAGGSLRLSCAASGSTFTRNAMGWYRQAPGKERELVARISRSGGSTYYADSVKGRFTISRDNAKNSVYLQMNSLKPEDTAVYDCNKDWYPRYPYVKGERDYWGEGTQVTVSS | high polyreactivity
QVQLVESGGGLVQAGGSLRLSCAASGSTFTRNAMGWYRQAPGKERELVATISSGGSTNYADSVKGRFTISRDNAKNTVYLQMNSLKPEDTAVYYCAKRSLYRYYYWGQGTQVTVSS | high polyreactivity
QVQLVESGGGLVQAGGSLRLSCAASGSTFTRYAMGWYRPAPGKERELVAAISLSGGDTYYADSVKGRFTISRDNAKNTVYLQMNSLKPEDTAVYYCAARWGYRGYSYEYWGQGTQVTVSS | high polyreactivity
QVQLVESGGGLVQAGGSLRLSCAASGSTFTRYAMGWYRQAPGKERELVAAISRGGSTNYADSVKGRFTISRDNAKNTVYLQMNSLKPEDTAVYYCAKGSNRSRGYYWGQGTQVTVSS | high polyreactivity
QVQLVESGGGLVQAGGSLRLSCAASGSTFTRYAMGWYRQAPGKERELVAAISSSAGRTYYADSVKGRFTISRDNAKNTVYLQMNSLKPEDTAVYYCAATRVYAGAQYDYWGQGTQVTVSS | high polyreactivity
QVQLVESGGGLVQAGGSLRLSCAASGSTFTRYAMGWYRQAPGKERELVAGITGRGGSTYYADSVKGRFTISRDNAKNTVYLQMNSLKPEDTAVYYCNKRRRGVTTYDYWGQGTQVTVSS | high polyreactivity
QVQLVESGGGLVQAGGSLRLSCAASGSTFTRYAMGWYRQAPGKERELVASISRSGNTYYADSVKGRFTISRDNAKNTVYLQMNSLKPEDTAVNYCAAKRKSYYSYNFDYWGQGTQVTVSS | high polyreactivity
QVQLVESGGGLVQAGGSLRLSCAASGSTFTSYAMGWYRQAPGKEREFVAAISQSSGSTYYADSVKWSFTISRDNAKNTVYLQMNSLKPEDTAVYYCAAKGRIRYGYGFDYWGQGTQVTVSS | high polyreactivity
QVQLVESGGGLVQAGGSLRLSCAASGSTFTSYAMGWYRQAPGKERELVAAISKSGGSTNYADSVKGRFTISRDNAKNTVYLQMNSLKPEDTAVYYCAALGIGSYRRYSGYDYWGQGTQVTVSS | low polyreactivity
QVQLVESGGGLVQAGGSLRLSCAASGSTFTSYAMGWYRQAPGKERELVAAISKSGGSTYYADSVKGRFTISRDNAKNTVYLQMNSLKPEDTAVYYCAKYIAYYGYVPSPWDHPGDDYWGQGTQVTVSS | low polyreactivity
QVQLVESGGGLVQAGGSLRLSCAASGSTFTSYAMGWYRQAPGKERELVAAISRSGGRTYYADSVKGRFTISRDNAKYTVYLQMNSLKPEDTAVYYCNAASLSKSDYWGQGTQVTVSS | high polyreactivity

Sequence | polyreactivity (PSR sort gate)
QVQLVESGGGLVQAGGSLRLSCAASGSTFTTNAMGWYRQAPGKERELVATISRGGSTYYADSVKGRFTISRDNAKNTVYIQMNRLKPEDTAVYYCATDVQVPGIGRSVYAYEYWGQVTQVTVSS | low polyreactivity
QVQLVESGGGLVQAGGSLRLSCAASGSTFTTYVMGWYRQAPGKERELVAAISRRGGRTYYADSVKGRFTISRDNAKNTVYLQMNSLKPEDTAVYYCNKVYPTYYYYRGGPTEYDYWGQGTQVTVSS | high polyreactivity
QVQLVESGGGLVQAGGSLRLSCAASGSTFTVNAMGWYRQAPGKERELVAAINWSGGSTYYADSVKGRFTISRDNAKNTVYLQMNSLKPEDTAVYYCNKDREPYGYWSFDYWGQGTQVTVSS | low polyreactivity
QVQLVESGGGLVQAGGSLRLSCAASGSTFTVNDMGWYRQAPGKERELVAAITQRDGRTFYADSVKGRFTISRDNAKNTVYLQINSLKPEDTGVYYCAADYGWYTYGDYDYWGQGTQVTVSS | low polyreactivity
QVQLVESGGGLVQAGGSLRLSCAASGSTFTVNGMGWYRQAPGKERELVASITWSGGSTYYADSVKGRFTISRDNAKISVYLHMTSLIPEDTAVYYCAADEKLYITGYDYWGQGTQVTVSS | low polyreactivity
QVQLVESGGGLVQAGGSLRLSCAASGSTFTVYAMGWYRQAPGKERELVAAITNGGRTYYADSVKGRFTISRDNAKNTVYLQMNSLKPEDTAVYYCAADVYYDDYLYDYWGQGTQVTVSS | high polyreactivity
QVQLVESGGGLVQAGGSLRLSCAASGSTFTVYDMGWYRQAPGKERELVAGISRRGSSTYYADSVKGRFTISRDNAKNTVYLQMNSLKPEDTAVYYCAARGAVIRYPDKRYPVRYDYWGQGTQVTVSS | high polyreactivity
QVQLVESGGGLVQAGGSLRLSCAASGSTFTWNAMGWYRQAPGKERELVASITWGGGGTYYADSVKGRFTISRDNAKNTVYLQMNSLKPEDTAVYYCAAGLWSPAYRGGYYYWGQGTQVTVSS | low polyreactivity
QVQLVESGGGLVQAGGSLRLSCAASGSTFTWYAMGWYRQAPGKERELVADISYGGRSTYYADSVKGRFTISRDNAKNTVYLQMNSLKPEDTAVYYCAAESIPYYRYDYWGQGTQVTVSS | low polyreactivity
QVQLVESGGGLVQAGGSLRLSCAASGSTFTYNAMGWYRQAPGKERELVAAISSDGRTYYADSVKGRFTISRDNAKNTVYLQMNSLKPEDTAVYYCAAYFSGLTYGYYVAGYDYWGQGTQVTVSS | low polyreactivity
QVQLVESGGGLVQAGGSLRLSCAASGSTFTYNAMGWYRQAPGKERELVAAITGRGGSTYADSVKGRFTISRDNAKNTVYLQMNSLKPEDTAVYYCAARRPYGYRWHTSVPSLDYWGQGTQVTVSS | low polyreactivity
QVQLVESGGGLVQAGGSLRLSCAASGSTFTYNAMGWYRQAPGKERELVASISSGTTTYYADSVKGRFTISRDNAKNTVYLQMNSLKPDDTAVYYCNADIYTWFQIGGYQYDYWGQGTQVTVSS | low polyreactivity
QVQLVESGGGLVQAGGSLRLSCAASGSTFTYNAMGWYRQAPGKERELVASISSGTTTYYADSVKGRFTISRDNAKNTVYLQMNSLKPEDTAVYYCAALVSPDRGYYSYWYIYDYWGQGTQVTVSS | low polyreactivity
QVQLVESGGGLVQAGGSLRLSCAASGSTFTYNDMGWYRPAPGKERELVATIDSTTRTYYADSVKGRFTISRDNAKNSVYLQMNCLKPEDTAVYYCAADLTWAYFYYLFYRYDYWGQGTKVTVSS | low polyreactivity
QVQLVESGGGLVQAGGSLRLSCAASGSTFTYYAMGWYRQAPGKERELVAAIDFSGTSTYYADSVKGRFTISRDNAKNTVYLQMNSLQPEDTAVYYCAASQSWYWGGAQDNGEFGYWGQGTQVTVSS | low polyreactivity
QVQLVESGGGLVQAGGSLRLSCAASGSTFTYYAMGWYRQAPGKERELVAAISRSGGNTYYADSVKGRFTISRDNAKNTVYLQMNSLKKEDTAVYYCAAYRQVYGFDYWGQGTQVTVSS | high polyreactivity
QVQLVESGGGLVQAGGSLRLSCAASGSTFTYYAMGWYRQAPGKERELVAAISRSGGNTYYADSVKGRFTISRDNAKNTVYLQMNSLKPEDTAVYYCAAYRQVYGFDYWGQGTQVTVSS | high polyreactivity
QVQLVESGGGLVQAGGSLRLSCAASGSTFTYYAMGWYRQAPGKERELVAAITGRGGRTYYADSVKGRFTISRDNAKNTVYLQMNSLKPEDTAVYYCARYPSSDTYWTKYDYWGQGTQVTVSS | high polyreactivity
QVQLVESGGGLVQAGGSLRLSCAASGSTFTYYAMGWYRQAPGKERELVAAITSGGSTYYADSVKGRFTISRDNAKNTVYLQMNSLKPEDTAVYYCNRGSWRYSTMEYWGQGTQVTVSS | high polyreactivity
QVQLVESGGGLVQAGGSLRLSCAASGSTFTYYTMGWYRQAPVKERELVAAISTSGGRTYDADSVKGRFTISRDYAKIPVFLQMNSLKPEDTAVYYCAAYSRTYDREFDYWGQGTQVTVSS | high polyreactivity
QVQLVESGGGLVQAGGSLRLSCAASGSTFVANVMGWYRQAPGKERELVAAINTNGGSTYYADSVKGRFTISRDNAKNTVYLQMNSLKPEDTAVYYCNKAWFRYWYGYWGQGTQVTVSS | low polyreactivity
